Assay results published in paper PMC3578862, “Single Residue Mutation in Active Site of Serine Acetyltransferase Isoform 3 from Entamoeba histolytica Assists in Partial Regaining of Feedback Inhibition by Cysteine” (PLoS ONE, 2013).

Experiments:
[1] = target: T1, Serine acetyltransferase isoform 1 (EhSAT1) (Entamoeba histolytica, UniProt Q9U8X2); experiment: SAT activity assay, acetyl-CoA thioester cleavage at […] nm, […] serine; type: biochemical
T1 construct: gene EhSAT
T1 sequence (Q9U8X2 1-305): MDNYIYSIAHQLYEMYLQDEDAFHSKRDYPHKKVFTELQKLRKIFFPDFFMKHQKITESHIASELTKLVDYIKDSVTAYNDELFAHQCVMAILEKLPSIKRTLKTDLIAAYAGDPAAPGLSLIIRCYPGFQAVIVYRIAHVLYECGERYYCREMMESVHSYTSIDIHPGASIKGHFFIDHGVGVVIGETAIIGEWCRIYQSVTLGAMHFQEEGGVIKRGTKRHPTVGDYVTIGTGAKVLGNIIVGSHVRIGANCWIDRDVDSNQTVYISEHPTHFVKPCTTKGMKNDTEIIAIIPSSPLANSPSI

[2] = substrate: N[C@@H](CO)C(=O)O; experiment: purified protein; type: biochemical, Entamoeba histolytica; conditions: acetyl coenzyme A active site

N[C@@H](CS)C(=O)O [L-cysteine]
IC50 [1]: 9.59 µM

B1: Serine acetyltransferase isoform 1 (EhSAT1) (Entamoeba histolytica) (protein)
chain: MDNYIYSIAHQLYEMYLQDEDAFHSKRDYPHKKVFTELQKLRKIFFPDFFMKHQKITESHIASELTKLVDYIKDSVTAYNDELFAHQCVMAILEKLPSIKRTLKTDLIAAYAGDPAAPGLSLIIRCYPGFQAVIVYRIAHVLYECGERYYCREMMESVHSYTSIDIHPGASIKGHFFIDHGVGVVIGETAIIGEWCRIYQSVTLGAMHFQEEGGVIKRGTKRHPTVGDYVTIGTGAKVLGNIIVGSHVRIGANCWIDRDVDSNQTVYISEHPTHFVKPCTTKGMKNDTEIIAIIPSSPLANSPSI
Km ([2]; Asp114, Asp179, His180, His208, Arg222, His223): 43.5 µM

B2: Serine acetyltransferase isoform 3 (EhSAT3) (Entamoeba histolytica) (protein)
chain: MSSLLQQTSQLLVQSYQSDNIAFKSTKQFPEKKSFLELELIQKILFPDFFTRRDKRTFNNVLERLSLLVYHIQNSIEAYYNQQLAEKCITALLSQFVTIRELVKQDIIAAYTGDPAASSLAMIIRSYPGIHVMMIQRVAHILYMNGDIEYSRELMENIHSVTGIDIHPGTSIGNHFFIDHGVGVVIGETAVIGNWCRVYQSVTLGAMSFKEDNGIVIKGNKRHPTIGDFVVIGAGAKVLGNITIGSNVKIGANCWITQNIDQDQIVFISEHPSQITKSSTKQSSKDDKIILQSLTENKISEEQENLSWVNSPELLCTYTSEESTPINLDCFVSCQQ
Km [2]: 52.0 µM
